B1: Recombinant DR3-Fc (Fc fusion, UniProt Q93038 25-199, looked up)
chain: QGGTRSPRCDCAGDFHKKIGLFCCRGCPAGHYLKAPCTEPCGNSTCLVCPQDTFLAWENHHNSECARCQACDEQASQVALENCSAVADTRCGCKPGWFVECQVSQCVSSSPFYCQPCLDCGALHRHTRLLCSRRDTDCGTCLPGFYEHGDGCVSCPTSTLGSCPERCAAVCGWRQ
notes: death receptor 3 (DR3); dimeric MW ~92 kDa as printed; the catalogue product is, as I recall, the human extracellular domain fused to human IgG1 Fc; also called death receptor 3; source: bought: R&D Systems, cat. # 943-D3
B2: His-TL1A (TL1W2) (ligand, human, UniProt O95150 1-251, looked up)
chain: VYAPLRADGDKPRAHLTVVRQTPTQHFKNQFPALHWEHELGLAFTKNRMNYTNKFLLIPESGDYFIYSQVTFRGMTSECSEIRQAGRPNKPDSITVVITKVTDSYPEPTQLLMGTKSVCEVGSNWFQPIYLGAMFSLQEGDKLMVNVSDISLVDYTKEDKTFFGAFLL
notes: TL1A (TNFSF15), human; C-terminal extracellular domain comprising the TNF homology domain; non-covalent trimer; also called wild-type TL1A; source: Expi293 cells, transfected, purified (Ni-NTA, preparative gel filtration)
B3: Fc-TL1A (TL1W3) (Fc fusion, human, UniProt O95150 1-251, looked up)
chain: VYAPLRADGDKPRAHLTVVRQTPTQHFKNQFPALHWEHELGLAFTKNRMNYTNKFLLIPESGDYFIYSQVTFRGMTSECSEIRQAGRPNKPDSITVVITKVTDSYPEPTQLLMGTKSVCEVGSNWFQPIYLGAMFSLQEGDKLMVNVSDISLVDYTKEDKTFFGAFLL
notes: TL1A (TNFSF15), human; C-terminal extracellular domain comprising the TNF homology domain; 3:2 ratio of Fc:TL1A trimers; also called Fc-TL1A W3; source: Expi293 cells, transfected, purified (mAbSelect SuRe, preparative gel filtration); not shown: Fc (IgG1), N-terminal, kept
B4: HSA-TL1A (TL1W9) (ligand, human, UniProt O95150 1-251, looked up)
chain: VYAPLRADGDKPRAHLTVVRQTPTQHFKNQFPALHWEHELGLAFTKNRMNYTNKFLLIPESGDYFIYSQVTFRGMTSECSEIRQAGRPNKPDSITVVITKVTDSYPEPTQLLMGTKSVCEVGSNWFQPIYLGAMFSLQEGDKLMVNVSDISLVDYTKEDKTFFGAFLL
notes: TL1A (TNFSF15), human; C-terminal extracellular domain comprising the TNF homology domain; ratio of HSA to TL1A trimer 3:1; source: Expi293 cells, transfected, purified (Ni-NTA, preparative gel filtration); not shown: HSA (human serum albumin), N-terminal, kept

Key:
[1] = biological target: B1; experiment: ELISA; DR3-Fc immobilised non-specifically on Maxisorp plates (overnight, 4 °C), casein block; TL1A added in 3-fold dilutions, overnight 4 °C; bound TL1A detected with polyclonal rabbit anti-human TL1A-biotin and streptavidin-HRP; concentrations normalised to TL1A trimers; triplicate; details: both partners purified
[2] = biological target: B2; experiment: ELISA; reversed format: TL1A molecules immobilised, DR3 titrated; details: both partners purified
[3] = biological target: B3; experiment: as above; details: both partners purified
[4] = biological target: B4; experiment: as above; details: both partners purified
[5] = biological target: T1, DcR3 (TNFRSF6B) (UniProt O95407 30-300); experiment: ELISA; TL1A variants on DcR3; who was immobilised is not told for DcR3; triplicate; details: both partners purified
T1 construct: soluble decoy receptor DcR3 (TNFRSF6B); the catalogue product is, as I recall, an Fc chimera; the SPR methods name capture by goat anti-human-Fc; also called decoy receptor DcR3; recombinant DcR3 protein
T1 sequence (looked up): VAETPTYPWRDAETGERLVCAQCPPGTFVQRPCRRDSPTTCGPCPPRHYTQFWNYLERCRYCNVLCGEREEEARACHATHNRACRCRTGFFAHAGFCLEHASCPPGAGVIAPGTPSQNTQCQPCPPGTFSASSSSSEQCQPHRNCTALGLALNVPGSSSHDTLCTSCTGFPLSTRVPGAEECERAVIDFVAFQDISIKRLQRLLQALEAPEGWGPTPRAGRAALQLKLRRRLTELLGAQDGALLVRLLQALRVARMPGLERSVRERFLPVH

[6] = biological target: the molecule itself; experiment: SEC; preparative gel filtration after affinity capture, Sepax SRT-C SEC-300, 20 mM sodium phosphate pH 6.8; the main peak is taken as the target oligomer

Binder	EC50 [1]	stoichiometry N [6]	other results
TL1W328.001 (K111A L123K M158Y Q167A S187L N207F) (Fc fusion, human, TL1A (TNFSF15), human, residues 84-251; first of three units; linker between TL1A units; second unit; third unit; combination mutant in the Fc-scTL1A format; the mutations are written on each of the three TL1A units; source: Expi293 cells, transfected, purified (mAbSelect SuRe); not shown: Fc (IgG1), N-terminal, kept) VYAPLRADGDKPRAHLTVVRQTPTQHFANQFPALHWEHEKGLAFTKNRMNYTNKFLLIPESGDYFIYSQVTFRGYTSECSEIRAAGRPNKPDSITVVITKVTDLYPEPTQLLMGTKSVCEVGSFWFQPIYLGAMFSLQEGDKLMVNVSDISLVDYTKEDKTFFGAFLLGGSGGSGGSVYAPLRADGDKPRAHLTVVRQTPTQHFANQFPALHWEHEKGLAFTKNRMNYTNKFLLIPESGDYFIYSQVTFRGYTSECSEIRAAGRPNKPDSITVVITKVTDLYPEPTQLLMGTKSVCEVGSFWFQPIYLGAMFSLQEGDKLMVNVSDISLVDYTKEDKTFFGAFLLGGSGGSGGSVYAPLRADGDKPRAHLTVVRQTPTQHFANQFPALHWEHEKGLAFTKNRMNYTNKFLLIPESGDYFIYSQVTFRGYTSECSEIRAAGRPNKPDSITVVITKVTDLYPEPTQLLMGTKSVCEVGSFWFQPIYLGAMFSLQEGDKLMVNVSDISLVDYTKEDKTFFGAFLL	8.8 nM	–	–
TL1W327.001 (K111A L123K M158Y Q167A S187L E190F) (Fc fusion, human, TL1A (TNFSF15), human, residues 84-251; first of three units; linker between TL1A units; second unit; third unit; combination mutant in the Fc-scTL1A format; the mutations are written on each of the three TL1A units; also called AKYALF190; source: Expi293 cells, transfected, purified (mAbSelect SuRe); not shown: Fc (IgG1), N-terminal, kept) VYAPLRADGDKPRAHLTVVRQTPTQHFANQFPALHWEHEKGLAFTKNRMNYTNKFLLIPESGDYFIYSQVTFRGYTSECSEIRAAGRPNKPDSITVVITKVTDLYPFPTQLLMGTKSVCEVGSNWFQPIYLGAMFSLQEGDKLMVNVSDISLVDYTKEDKTFFGAFLLGGSGGSGGSVYAPLRADGDKPRAHLTVVRQTPTQHFANQFPALHWEHEKGLAFTKNRMNYTNKFLLIPESGDYFIYSQVTFRGYTSECSEIRAAGRPNKPDSITVVITKVTDLYPFPTQLLMGTKSVCEVGSNWFQPIYLGAMFSLQEGDKLMVNVSDISLVDYTKEDKTFFGAFLLGGSGGSGGSVYAPLRADGDKPRAHLTVVRQTPTQHFANQFPALHWEHEKGLAFTKNRMNYTNKFLLIPESGDYFIYSQVTFRGYTSECSEIRAAGRPNKPDSITVVITKVTDLYPFPTQLLMGTKSVCEVGSNWFQPIYLGAMFSLQEGDKLMVNVSDISLVDYTKEDKTFFGAFLL	37.5 nM	–	–
TL1W331.001 (K111A L123K Q167A S187L E190F N207F) (Fc fusion, human, TL1A (TNFSF15), human, residues 84-251; first of three units; linker between TL1A units; second unit; third unit; combination mutant in the Fc-scTL1A format; the mutations are written on each of the three TL1A units; also called Fc-scTL1A-AKALFF; Fc-scTL1A AKALFF; source: Expi293 cells, transfected, purified (mAbSelect SuRe); not shown: Fc (IgG1), N-terminal, kept) VYAPLRADGDKPRAHLTVVRQTPTQHFANQFPALHWEHEKGLAFTKNRMNYTNKFLLIPESGDYFIYSQVTFRGMTSECSEIRAAGRPNKPDSITVVITKVTDLYPFPTQLLMGTKSVCEVGSFWFQPIYLGAMFSLQEGDKLMVNVSDISLVDYTKEDKTFFGAFLLGGSGGSGGSVYAPLRADGDKPRAHLTVVRQTPTQHFANQFPALHWEHEKGLAFTKNRMNYTNKFLLIPESGDYFIYSQVTFRGMTSECSEIRAAGRPNKPDSITVVITKVTDLYPFPTQLLMGTKSVCEVGSFWFQPIYLGAMFSLQEGDKLMVNVSDISLVDYTKEDKTFFGAFLLGGSGGSGGSVYAPLRADGDKPRAHLTVVRQTPTQHFANQFPALHWEHEKGLAFTKNRMNYTNKFLLIPESGDYFIYSQVTFRGMTSECSEIRAAGRPNKPDSITVVITKVTDLYPFPTQLLMGTKSVCEVGSFWFQPIYLGAMFSLQEGDKLMVNVSDISLVDYTKEDKTFFGAFLL	9 nM	–	–
TL1W329.001 (K111A L123K M158Y Q167A E190F N207F) (Fc fusion, human, TL1A (TNFSF15), human, residues 84-251; first of three units; linker between TL1A units; second unit; third unit; combination mutant in the Fc-scTL1A format; the mutations are written on each of the three TL1A units; source: Expi293 cells, transfected, purified (mAbSelect SuRe); not shown: Fc (IgG1), N-terminal, kept) VYAPLRADGDKPRAHLTVVRQTPTQHFANQFPALHWEHEKGLAFTKNRMNYTNKFLLIPESGDYFIYSQVTFRGYTSECSEIRAAGRPNKPDSITVVITKVTDSYPFPTQLLMGTKSVCEVGSFWFQPIYLGAMFSLQEGDKLMVNVSDISLVDYTKEDKTFFGAFLLGGSGGSGGSVYAPLRADGDKPRAHLTVVRQTPTQHFANQFPALHWEHEKGLAFTKNRMNYTNKFLLIPESGDYFIYSQVTFRGYTSECSEIRAAGRPNKPDSITVVITKVTDSYPFPTQLLMGTKSVCEVGSFWFQPIYLGAMFSLQEGDKLMVNVSDISLVDYTKEDKTFFGAFLLGGSGGSGGSVYAPLRADGDKPRAHLTVVRQTPTQHFANQFPALHWEHEKGLAFTKNRMNYTNKFLLIPESGDYFIYSQVTFRGYTSECSEIRAAGRPNKPDSITVVITKVTDSYPFPTQLLMGTKSVCEVGSFWFQPIYLGAMFSLQEGDKLMVNVSDISLVDYTKEDKTFFGAFLL	8.7 nM	–	–
B1	–	–	EC50 [2]: 2.5 nM; EC50 [3]: 2.6 nM; EC50 [4]: > 4000 nM
B2	26.2 nM	3	EC50 [5]: 4.6 nM
B3	–	6	–
B4	–	3	–
